Biological target: the molecule itself
Assay: cryo-EM structure

B1: L-protein (homodimeric BchL protein, electron donor component of DPOR) (natural protein, Rhodobacter sphaeroides, UniProt Q9RFD6 1-297, looked up)
chain: MSPKDLTIPTGADGEGSVQVHLDEADKITGAKVFAVYGKGGIGKSTTSSNLSAAFSILGKRVLQIGCDPKHDSTFTLTGSLVPTVIDVLKDVDFHPEELRPEDFVFEGFNGVMCVEAGGPPAGTGCGGYVVGQTVKLLKQHHLLDDTDVVIFDVLGDVVCGGFAAPLQHADQAVVVTANDFDSIYAMNRIIAAVQAKSKNYKVRLAGCVANRSRATDEVDRFCKETNFRRLAHMPDLDAIRRSRLKKKTLFEMDEDQDVLAARAEYIRLAESLWRGLDPIDPHSLPDRDIFELLGFD
stoichiometry N: 2

Reference: paper PMC12022308 (Nature Communications, 2025)
